{"source": "patent US20230393135A1", "key": {"[1]": {"target": "SARS-CoV-2 S protein trimer with the K417N/E484K/N501Y mutations (present in the B.1.351 variant) (SARS-CoV-2) (UniProt P0DTC2)"}, "[2]": {"target": "SARS-CoV-2 S protein trimer with the Δ69-70 Y453F mutations (present in the mink variant) (SARS-CoV-2) (UniProt P0DTC2)"}}}
{"substance": "REGN10933 neutralizing antibody", "values": [{"measurement": "fold loss in IC80 activity", "setting": "[1]", "result": 61, "unit": "fold"}, {"measurement": "fold loss in IC80 activity", "setting": "[2]", "result": 67, "unit": "fold"}]}
